Reference: paper PMC8971729

Tests used:
[1] = target: CAR on CHO-CAR cells (UniProt P78310); test: flow cytometry on cells; CHO-CAR cells with serial dilutions of knob protein (0.0001-100 ug/10^5 cells) for 1 h on ice, washed, then stained for CAR with anti-CAR (RmcB) and a labelled secondary antibody; IC50 by non-linear regression; apparent
[2] = target: Human desmoglein-2 Fc chimera protein (DSG2) (human) (UniProt Q14126); test: SPR; BIAcore 3000; DSG2-Fc, CAR-Fc and CD46-His (approximately 500 RU) coupled to a CM5 chip; knob protein injected (178 uM, 5x 1:3 dilutions; single-cycle kinetics from 200 uM); 30 uL/min, PBS, 25 °C; equilibrium KD assuming 1:1 Langmuir binding
Chain of Human desmoglein-2 Fc chimera protein (DSG2) (human) (Q14126 50-609, change not shown): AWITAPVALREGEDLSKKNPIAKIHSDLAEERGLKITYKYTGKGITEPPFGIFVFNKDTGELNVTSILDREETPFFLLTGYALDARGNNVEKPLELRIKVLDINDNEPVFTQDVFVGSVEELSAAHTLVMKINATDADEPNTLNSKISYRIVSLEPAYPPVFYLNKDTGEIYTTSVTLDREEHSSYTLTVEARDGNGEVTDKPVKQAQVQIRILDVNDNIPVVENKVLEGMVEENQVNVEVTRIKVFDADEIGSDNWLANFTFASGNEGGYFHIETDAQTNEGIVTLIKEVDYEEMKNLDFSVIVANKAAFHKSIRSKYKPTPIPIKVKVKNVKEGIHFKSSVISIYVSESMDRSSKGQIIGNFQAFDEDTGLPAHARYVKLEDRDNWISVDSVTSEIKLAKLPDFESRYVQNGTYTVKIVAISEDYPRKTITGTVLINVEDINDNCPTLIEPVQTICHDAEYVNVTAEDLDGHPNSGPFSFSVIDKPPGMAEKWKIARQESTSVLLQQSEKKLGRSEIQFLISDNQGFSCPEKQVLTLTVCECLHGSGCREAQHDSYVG

[3] = target: human CD46 protein (His tag) (human) (UniProt P15529); test: as above
Chain of human CD46 protein (His tag) (human) (P15529 35-343): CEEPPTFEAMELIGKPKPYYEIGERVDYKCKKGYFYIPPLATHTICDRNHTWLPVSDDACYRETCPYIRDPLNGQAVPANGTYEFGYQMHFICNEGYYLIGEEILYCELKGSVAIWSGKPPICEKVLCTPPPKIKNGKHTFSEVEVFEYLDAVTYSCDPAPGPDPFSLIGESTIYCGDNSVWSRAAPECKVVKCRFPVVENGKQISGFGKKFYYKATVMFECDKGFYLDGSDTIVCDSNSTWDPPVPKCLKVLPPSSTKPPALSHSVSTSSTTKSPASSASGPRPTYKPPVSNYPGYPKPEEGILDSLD

[4] = target: human CXADR Fc chimera protein (CAR) (human) (UniProt P78310); test: as above
Chain of human CXADR Fc chimera protein (CAR) (human) (P78310 20-237, change not shown): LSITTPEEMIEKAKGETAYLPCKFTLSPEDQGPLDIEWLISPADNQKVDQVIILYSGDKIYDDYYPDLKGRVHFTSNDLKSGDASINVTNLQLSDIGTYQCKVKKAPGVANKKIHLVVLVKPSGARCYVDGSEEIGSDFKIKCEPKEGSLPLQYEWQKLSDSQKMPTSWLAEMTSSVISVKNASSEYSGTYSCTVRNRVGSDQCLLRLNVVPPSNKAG

Chain of CAR on CHO-CAR cells (P78310 20-365): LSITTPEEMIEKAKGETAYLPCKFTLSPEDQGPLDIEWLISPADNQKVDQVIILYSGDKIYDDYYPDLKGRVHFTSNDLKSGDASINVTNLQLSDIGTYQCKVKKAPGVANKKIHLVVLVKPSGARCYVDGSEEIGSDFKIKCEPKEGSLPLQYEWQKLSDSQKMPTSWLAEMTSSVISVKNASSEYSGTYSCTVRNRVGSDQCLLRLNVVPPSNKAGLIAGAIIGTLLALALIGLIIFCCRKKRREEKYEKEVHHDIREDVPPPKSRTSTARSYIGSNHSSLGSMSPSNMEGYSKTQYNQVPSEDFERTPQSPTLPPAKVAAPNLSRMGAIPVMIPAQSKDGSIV

In the case of “HAdV-D10 fiber knob protein (domain or fragment)”, the fold lower apparent affinity than HAdV-C5K (by IC50) [1] is reported as 16.5 fold, the Kd [2] is reported as 125 µM and the Kd [3] is reported as 20 µM. It also gave a Kd [4] of 0.44 µM.
